Data published in article PMC5561129.

Target: full-length 3xflag-LRRK1 (leucine-rich repeat kinase 1) (human) (UniProt Q38SD2)
Test: cryo-EM structure; single particle cryo-EM of purified 3xflag-LRRK1 eluted in Tris buffer at pH 7.4 with 0.02% Triton X-100; thin carbon film on Quantifoil grids; EMAN2 2D classes and 3D reconstruction

stoichiometry N: 2
Substance: full-length 3xflag-LRRK1 (leucine-rich repeat kinase 1), Q38SD2 1-2015
